From US6887705B1, “Tyrosine phosphorylated cleavage furrow-associated proteins (PSTPIPs)” (Genentech, Inc., priority 1997, dated 2005) come the findings set out here.

“Also recorded” adds a separate entry of the source.

The target in the experiment is T1, PTP HSCF (Mus musculus, UniProt Q61152).
T1 construct: the PST (and C-terminal homolog) of PTP HSCF (amino acids 304-453); made in house; host or cells: E. coli DH5-alpha
T1 sequence (Q61152 304-453): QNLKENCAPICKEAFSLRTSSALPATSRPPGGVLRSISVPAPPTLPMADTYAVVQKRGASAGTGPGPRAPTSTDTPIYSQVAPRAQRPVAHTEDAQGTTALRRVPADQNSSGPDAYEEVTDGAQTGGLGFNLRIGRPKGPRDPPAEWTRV
The experiment can be described thus: In vitro GST pull-down binding of PST PIP forms to PTP HSCF. The method, then:
The binding was carried out according to the method of Wong and Johnson (Wong et al., J. Biol. Chem. 271(35):20981-20984 (1996)). Briefly, 1 μg of plasmid with either the PSTPIP protein or PTP HSCF under the control of the Sp6 promoter was in vitro transcribed/translated using the Promega™ TnT Rabbit Reticulocyte™ system. Samples were diluted in 50 mM HEPES, pH 7.2, 1% triton X 100, 10% glycerol, 100 mM NaCl, 5 mM EDTA and 2 μg/ml each of leupeptin, pepstatin, aprotinin, and PMSF. […] This was reacted for 1 hour at 4° C. and then the resin washed 6 times in HEPES/Triton binding buffer before SDS gel electrophoresis. The peptides were synthesized on an automated Milligen 9050 Peptide Synthesizer using standard solid phase chemistry with FMOC protected amino acids on a p-alkoxybenzyl alcohol resin. Dried peptides were re-suspended in the HEPES/Triton Binding buffer at a concentration of 10 mg/ml. Peptide inhibition was performed by adding the peptide first to the in vitro translation product and then the GST-fusion followed by the GSH-Sepharose. The binding/washing steps were as previously described. The peptides synthesized and the PTPs they were derived from were: • PXXP-HSCF: 432[…]451 (PTP HSCF) (SEQ ID NO:20), • PXXP-PEP: 782GFGNRFSKPKGPRNPPSAW800 (PTP PEP) (SEQ ID NO:21), • PXXP-PEST: 761[…]780 (PTP PEST) SEQ ID NO:22), • PXXP-CONTROL: 334[…]353 (PTP HSCF) (SEQ ID NO:23).
In vitro binding analyses between various PTP HSCF and PST PIP constructs were performed as previously described (Spencer et al, (1997), supra). Briefly, plasmids were transcribed and translated in vitro using the TnT Rabbit Reticulocyte Lysate System (Promega). Samples were diluted in 50 mM HEPES, pH 7.2, 1% triton X-100, 10% glycerol, 100 mM NaCl, and 2 μg/ml each of leupeptin, pepstatin, aprotinin and PMSF (lysis buffer). Samples were than reacted with GST fusion proteins at various concentrations, and the bound proteins were centrifuged using glutathione-sepharose beads and analyzed on SDS polyacrylamide gels. C-terminally-derived peptide inhibition studies were performed by incubating the GST fusion protein binding reactions in the presence of 10 μg/ml of the indicated peptides. Peptides were produced by FMOC-protected amino acids as previously described (Spencer et al, (1997), supra). In vivo interactions between various forms of PTP HSCF and PST PIP were also performed as previously described (Spencer et al, (1997), supra). Briefly, COS cells were transfected with various constructs, and after 48 hours, lysates were prepared and immunoprecipitated with antibodies to either the FLAG epitope contained at the C-terminus of PST PIP or an HA epitope contained at the N-terminus of PTP HSCF. The resultant blots were probed with anti-FLAG to detect PST PIP, anti-HA to detect PTP HSCF or anti-phosphotyrosine to detect levels of this modified amino acid in each protein.

B1: GST-PSTPIP (GST fusion of full-length PSTPIP, amino acids 2-415) (other)
chain: MAQLQFRDAFWCRDFTAHTGYEVLLQRLLDGRKMCKDVEELLRQRAQAEERYGKELVQIARKAGGQTEMNSLRTSFDSLKQQTENVGSAHIQLALALREELRSLEEFRERQKEQRKKYEAIMDRVQKSKLSLYKKTMESKKAYDQKCRDADDAEQAFERVSANGHQKQVEKSQNKAKQCKESATEAERVYRQNIEQLERARTEWEQEHRTTCEAFQLQEFDRLTILRNALWVHCNQLSMQCVKDDELYEEVRLTLEGCDVEGDINGFIQSKSTGREPPAPVPYQNYYDREVTPLIGSPSIQPSCGVIKRFSGLLHGSPKTTPSAPAASTETLTPTPERNELVYASIEVQATQGNLNSSAQDYRALYDYTAQNSDELDISAGDILAVILEGEDGWWTVERNGQRGFVPGSYLEKL
notes: Made in DH5-alpha bacteria from pGEX4T-2; also called GST-full-length PSTPIP; GST PTP PIP; not shown: glutathione S-transferase encoded by pGEX-4T-2 (Pharmacia)
Turning to B1, the “precipitation of in vitro translated PTP HSCF by GST fusions of PSTPIP or its domains” value (~1 microgram per ml GST fusion protein) is “high degree of specificity”.

B2: PSTPIP: murine PST Phosphatase Interacting Protein, 415 residues (SEQ ID NO:1) (protein)
chain: MMAQLQFRDAFWCRDFTAHTGYEVLLQRLLDGRKMCKDVEELLRQRAQAEERYGKELVQIARKAGGQTEMNSLRTSFDSLKQQTENVGSAHIQLALALREELRSLEEFRERQKEQRKKYEAIMDRVQKSKLSLYKKTMESKKAYDQKCRDADDAEQAFERVSANGHQKQVEKSQNKAKQCKESATEAERVYRQNIEQLERARTEWEQEHRTTCEAFQLQEFDRLTILRNALWVHCNQLSMQCVKDDELYEEVRLTLEGCDVEGDINGFIQSKSTGREPPAPVPYQNYYDREVTPLIGSPSIQPSCGVIKRFSGLLHGSPKTTPSAPAASTETLTPTPERNELVYASIEVQATQGNLNSSAQDYRALYDYTAQNSDELDISAGDILAVILEGEDGWWTVERNGQRGFVPGSYLEKL
modifications: Mus Musculus
As to B2, the “binding of in vitro translated PST PIP forms to GST fusion of C-terminal 149 amino acids of PTP HSCF” value is “capable of interacting”.

B3: W232A mutant of PST PIP, C-terminal FLAG (other)
chain: MMAQLQFRDAFWCRDFTAHTGYEVLLQRLLDGRKMCKDVEELLRQRAQAEERYGKELVQIARKAGGQTEMNSLRTSFDSLKQQTENVGSAHIQLALALREELRSLEEFRERQKEQRKKYEAIMDRVQKSKLSLYKKTMESKKAYDQKCRDADDAEQAFERVSANGHQKQVEKSQNKAKQCKESATEAERVYRQNIEQLERARTEWEQEHRTTCEAFQLQEFDRLTILRNALAVHCNQLSMQCVKDDELYEEVRLTLEGCDVEGDINGFIQSKSTGREPPAPVPYQNYYDREVTPLIGSPSIQPSCGVIKRFSGLLHGSPKTTPSAPAASTETLTPTPERNELVYASIEVQATQGNLNSSAQDYRALYDYTAQNSDELDISAGDILAVILEGEDGWWTVERNGQRGFVPGSYLEKLDYKDDDDK
notes: In vitro translated or expressed in COS cells; also called W232A PST PIP; PST PIP with an alanine replacement mutation at tryptophan232
Consider B3, for which the “binding of in vitro translated PST PIP forms to GST fusion of C-terminal 149 amino acids of PTP HSCF” value is listed as “complete loss of binding; also recorded: abolishes the interaction”.
